This series is described as follows: yeast display, Sf9 membrane polyspecificity reagent, FACS + sequencing; frameworks hold sequencing errors. In short, it runs like this: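 Nanobodies from a synthetic yeast display library (Saccharomyces cerevisiae BJ5465), induced 36–48 hours with galactose, were stained 1 hour at 4 °C with 10% biotinylated, detergent-solubilized Sf9 membrane reagent, enriched on streptavidin microbeads, then FACS-sorted. Anti-HA (expression) and streptavidin (reagent binding) fluorescence set low and high (top ~1%) gates. Polyreactivity labels come from the gate of origin. Genes were colony-PCR amplified, MiSeq 2 × 250 sequenced and filtered by CDR length.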
For “QVQIEESGGGLVQAGGSLRLSCAASGRTFNFYAMGWYRQATGKERELVAAISHGDSTYYADSVKGRFTISRDNAKNTVYLQMNSLKPEDTAVYYCAASQKYYLRKYEYWGQGTQVTVSS”, the “polyreactivity (PSR sort gate)” value is “low polyreactivity”.

Consider “QVQLVESGGGLVQAGGSLRLSCAASGRIFYWNAMGWYRQAHGKERELVAAISWSGGSTYYADSVKGRFTISRDNAKNTVYLQMNSLKPEDTAVYYCAADGGRRTYYVKYDYWGQGTQVTASS”, for which the “polyreactivity (PSR sort gate)” value is recorded as “low polyreactivity”.

For the sequence “QVQLVESRGALVQAGGSLRLSCAASGYIFYSNAMRWYRQEPGKERELVAAITSGRGSTYYADSVKGRFTISRDNAKNTVYLQMNSLIPEDTAVYYCDVSIGRYPYRYGYWGQGTQVTVSS”, the “polyreactivity (PSR sort gate)” value was “high polyreactivity”.

As to “QVQLVESGGGLVQPGGSLRLSCAASGSIFTRNAMGWYRQAPGKERELVAAITKRGGSTYYADSVKGRFTISRDNAKNTVYLQMNSLKPEETAVYSCAADVYKYKHTQEYHVGRMDYWGQGTQVTVSS”, the “polyreactivity (PSR sort gate)” value was “low polyreactivity”.

For the sequence “QVQLVETVGGLVQAGGSLRLSCAASGSTFYRYAMGWYRQAPGKERELVAAISSSGGSTYYADSVKGRFTISRDNAKNSVYLQMNSLKPEDSAVYYCNAARNFRYDYWGQGTQVTVSS”, the “polyreactivity (PSR sort gate)” value is on record as “high polyreactivity”.

In the case of “QVQLVESGGVLVQAGGSLRLSCAASGSTFWLYAMGWNRQAPRKERELVAAITRSGGRTNYADSVKGRFTISRDNAKNTVYLQMNSLKPEDTAVYYCAAEYLGVSYNNWAYDFWGQGTQVTVSS”, the “polyreactivity (PSR sort gate)” value is reported as “low polyreactivity”.

Turning to “QVQLVESGGGLVQAGGSLRLSCAASGSIFGIYAMGWYRQAPGKERELVATITGRGGSTYYADSVKGRFTISRDNAKNTVYLQMNSLKPEDTAVYYCNAGGRSARYFWGGYWGQGTQVTVSS”, the “polyreactivity (PSR sort gate)” value was “high polyreactivity”.

In the case of “QVQLVESGGGLVQAGGSLRLSCAASGRTFAVNALGWYRQAPGKERELVAAIRTGSTYYADSVKGRFTISRDNAKNTVYLQMNSLKPEDTAVYFCAAPYRADSYDYWGQGTQVTVSS”, the “polyreactivity (PSR sort gate)” value is reported as “high polyreactivity”.

Turning to “QVQLVESGGGLVQAGGSLRLRCAASGSTFRQYAMGWYRQAPGKERELVAAISSGGRTNYADSVKGRFTISRDNAKNTVYLQMNSLKPEDTAVYYCAADIRRRVPVRGYYYWGQGTQVTVSS”, the “polyreactivity (PSR sort gate)” value was “high polyreactivity”.

As for “QVQLVESGGGLVQAGGSLRLSCAASGRIFVLYAMGWYRQAPGKERELVADITVSGGSTYYADSVKGRFTISRDNAKNTVYLQMNSLKPEDTAVYYCAADQRYWKFDSWGQGTQVTVSS”, the “polyreactivity (PSR sort gate)” value is recorded as “high polyreactivity”.

For “QVQLVESGGGLVQAGGSLRLSCAASGSIFSENTMGWYRQAPGKKRELVADITSGGSTNYADSVKGRFTISRDNAKNTVYLQMNSLKPEDTAVYYCNADWEAYKYNYWGQGTQVTVSS”, the “polyreactivity (PSR sort gate)” value is listed as “low polyreactivity”.

Turning to “QVQLVESGGGLVQAGGSLRLSCAASGSIFFYYAMGWYRQAPGKEREFVAGITYSGGITYYADSVKGRFTISRDNGKNTVYLQMNSLKPEDTAVYYCDYGGGVYQYGYWGQGPQVTVSS”, the “polyreactivity (PSR sort gate)” value is given as “low polyreactivity”.

With “QVQLGESGGGLVQAGGSLRLSCAASGRIFISKTMGWSRQAPGKERELVAAITSSGRTYYADSVKGRFTISRDNAMNTVFFQMNSGKPEDTADYYCAADSYSGNDRRRGFDYWGQGTQVTVSS”, the “polyreactivity (PSR sort gate)” value is reported as “low polyreactivity”.

Take “QVQLQESGGGLVQAGGSLRLSCAASGYISTFSSEMGWYRQAPGKERELVASIAPGCTTSYADSVKGRFTISRDNAKNTVYLQMNSLKPEDTAVYYCAVDFTVPASFGYWGQGTQVTVSS”: the “polyreactivity (PSR sort gate)” value is “high polyreactivity”.

As to “QVQLVESGGGLVQAGGSLRLSCAASGYTFFRYAMGWYRQAPGKERELVAAISGGGGSTYYADSVKGRFTISRDYAKNTVYLQMNSLKPEDTAVYYCAAESQAYSLYWGQGTQVTVSS”, the “polyreactivity (PSR sort gate)” value is given as “high polyreactivity”.

On to “QVQLVESGGGLVQAGGSLRLSCAASGSIFGHYAMGWYRQATGKERELVATISRRGGSTYYADSVKVRFTISRDNAKNTVYLQMNSLKPEDTAVYYCAADSKGSLYGYWGQGTQVTVSS”, for which the “polyreactivity (PSR sort gate)” value is given as “high polyreactivity”.

The values are drawn from the nanobody polyreactivity screen of Harvey et al. (2022).
